This assay has as its target mouse Nicastrin I241C mutant (mouse) (UniProt P57716). The assay can be described thus: cross-linking.
Chain of UniProt P57716 (P57716 28-708 I241C): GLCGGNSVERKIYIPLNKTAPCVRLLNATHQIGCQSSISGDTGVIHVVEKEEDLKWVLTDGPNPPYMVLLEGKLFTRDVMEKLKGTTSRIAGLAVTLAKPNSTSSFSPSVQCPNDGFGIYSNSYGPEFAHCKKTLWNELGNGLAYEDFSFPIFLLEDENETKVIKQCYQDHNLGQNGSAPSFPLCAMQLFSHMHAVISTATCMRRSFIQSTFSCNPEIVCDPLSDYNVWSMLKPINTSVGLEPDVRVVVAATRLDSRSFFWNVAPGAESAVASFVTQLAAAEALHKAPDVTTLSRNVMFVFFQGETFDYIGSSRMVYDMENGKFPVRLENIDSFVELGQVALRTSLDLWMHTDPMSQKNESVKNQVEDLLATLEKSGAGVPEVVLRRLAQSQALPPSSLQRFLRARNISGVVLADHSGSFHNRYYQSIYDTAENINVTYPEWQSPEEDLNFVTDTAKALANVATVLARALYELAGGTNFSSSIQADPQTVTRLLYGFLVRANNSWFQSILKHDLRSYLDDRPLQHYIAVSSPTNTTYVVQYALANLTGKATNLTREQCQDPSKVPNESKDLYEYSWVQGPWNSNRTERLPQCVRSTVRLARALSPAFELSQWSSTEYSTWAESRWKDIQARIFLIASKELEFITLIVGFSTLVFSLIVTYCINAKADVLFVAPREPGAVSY

For the substance APPC99‐3xFLAG‐K28C (domain or fragment), the percent of the substrate cross-linked to NCT (disulfide bond) is 15.4%.

(Values after publication PMC6576158.)
